In experiment [1] the target is 猫泛白细胞减少症病毒1009株 (Feline panleukopenia virus). As to the kind of experiment: cell-based or functional assay.
Experiment [2] has the same target. As to the kind of experiment: indirect immunofluorescence on acetone-fixed F81 cells infected with FPV 1009 strain.

B1: 单克隆抗体3C3 (antibody, V domains shown)
VH: DVKLVESGGGLVNLGGSLKLSCAASGFTFSSYYMSWVRQTPEKRLELVAAINSNGGGTHSPDTVKGRFTISRDNAKNTLYLQMSSLESEDTALYYCARHADDGSFGLNWYFDVWGAGTTVTVSS
VL: DIVMSQSPSSLAVSVGEKVTMSCKSSQSLLYRSNEKNYLAWYQQKPGQSPKLLIYWGSTRESGVPDRFTGSGSGTDFTLTISSVKAEDLAVYYCHQYYRYSYTFGGGTKLEIK
B1: in experiment [1], the HI效价 (reciprocal dilution (printed 1:n)) came out at 5120. This molecule also had an IFA效价 (reciprocal dilution (printed 1:n)) in experiment [2] of 6400.

These data come from patent CN114249819A.
